Experimental data published in article PMC3631714 (Chembiochem : a European journal of chemical biology, 2012).
Each block holds one binder with its values, some of them ahead of it.

B1: Arap3-Sam wild-type (domain or fragment, human, UniProt Q8WWN8 1-80, looked up)
chain: MAAPQDLDIAVWLATVHLEQYADTFRRHGLATAGAARGLGHEELKQLGISATGHRKRILRLLQTGTEEGSLDPKSDSAME
B2: first Sam domain of Odin (Odin-Sam1) (domain or fragment, human, UniProt Q92625 691-770, looked up)
chain: ISGLRTLEQSVGEWLESIGLQQYESKLLLNGFDDVHFLGSNVMEEQDLRDIGISDPQHRRKLLQAARSLPKVKALGYDGN

Tests used:
[1] = target: B2; test: ITC
Arap3-Sam wild-type = target: B1; test: SPR
[2] = target: B2; test: NMR titration

Binder: B1
- Kd [1]: 0.37 ± 0.08 µM

Binder: B2
- Kd (Arap3-Sam wild-type): 2.9 ± 0.4 µM

- binding result [2]: binds
B3: Sam domain of the EphA2 receptor (EphA2-Sam) (domain or fragment, human, UniProt P29317 901-976, looked up)
chain: SEGVPFRTVSEWLESIKMQQYTEHFMAAGYTAIEKVVQMTNDDIKRIGVRLPGHQKRIAYSLLGLKDQVNTVGIPI
